To fix the notation:
B1: Caprine Kobuvirus d40 (nucleic acid, listed as Kobuvirus sp.)
DNA: GTGGCCACGCCCGGGCCACCGATACTTCCCTTCACTCCTTCGGGACTGTTGGGGAGGAACACAACAGGGCTCCCCTGTTTTCCCATTCCTTCCCCCTTTTCCCAACCCCAACCGCCGTATCTGGTGGCGGCAAGACACACGGGTCTTTCCCTCTAAAGCACAATTGTGTGTGTGTCCCAGGTCCTCCTGCGTACGGTGCGGGAGTGCTCCCACCCAACTGTTGTAAGCCTGTCCAACGCGTCGTCCTGGCAAGACTATGACGTCGCATGTTCCGCTGCGGATGCCGACCGGGTAACCGGTTCCCCAGTGTGTGTAGTGCGATCTTCCAGGTCCTCCTGGTTGGCGTTGTCCAGAAACTGCTTCAGGTAAGTGGGGTGTGCCCAATCCCTACAAAGGTTGATTCTTTCACCACCTTAGGAATGCTCCGGAGGTACCCCAGCAACAGCTGGGATCTGACCGGAGGCTAATTGTCTACGGGTGGTGTTTCCTTTTTCTTTTCACACAACTCTACTGCTGACAACTCACTGACTATCCACTTGCTCTCTTGTGCCTTTCTGCTCTGGTTCAAGTTCCTTGATTGTTTTTGACTGCTTTTCACTGCTTTTCTTCTCACAATCCTTGCTCAGTTCAAAGTC
B2: Sclerotinia sclerotiorum dsRNA mycovirus-L (nucleic acid)
DNA: TTGAATTAATCTTTTACGTTTACGCGCATAAAATCAGGACACATCTCTTGTATACTTTAGTATATCAATGATGTTTTTGTTTTATGCGATTAATCGTAAGAGAACTTCTTTCCATCCGCCTGTATGGGCGGGATAATAAGTTCACCGCCTTGGTCGAGGCGCAAACTTGTATGTGCAAAGGTGAGCTATATGCTCGAAATAGTCGTAACTAACACACAGCCACTACCTGTAGAGCTCTATTGATCCGGAATCCTTTAGTGGGAATGCAGAGCTCACACCGGACCTGCGGGTATCTTCGGCGTTAGGGACTTCTGTTTCAGCCTTGAATCATTTACCTTTATACCTTCTCTGAGGCGCCTGGGCCGGGCGCGATATTAAGTACAAGTCAAGGACATCGCGGGTAGTGGTCTAATCAGCCGCTAGTCCTGCTGGAGAGTTCCAACTTAGTTGGGTGTGGTGCATACTAGCTGGATAGAGTAGGTATGTATTGCTAACGTATGCCGGAGGCTATCCGTCCTCGGTAGAACGTGCCGAGGAGTAGTCTCTGCAGACCCCCGAACGCGTGGGGTCTTTACTTAAATGTAGGCGGAGGGAGCGCTCGTAGGTGGAACGACTGCCTCCCAGTCGAATGCAAGATTTTGCACGCGGACCAGTCTGCCCGGCAATTCCCGGGTG
B3: Caprine Kobuvirus d20 (nucleic acid, listed as Kobuvirus sp.)
DNA: CCCCCTCACCCTCTTTTCCGGTGGCCACGCCCGGGCCACCGATACTTCCCTTCACTCCTTCGGGACTGTTGGGGAGGAACACAACAGGGCTCCCCTGTTTTCCCATTCCTTCCCCCTTTTCCCAACCCCAACCGCCGTATCTGGTGGCGGCAAGACACACGGGTCTTTCCCTCTAAAGCACAATTGTGTGTGTGTCCCAGGTCCTCCTGCGTACGGTGCGGGAGTGCTCCCACCCAACTGTTGTAAGCCTGTCCAACGCGTCGTCCTGGCAAGACTATGACGTCGCATGTTCCGCTGCGGATGCCGACCGGGTAACCGGTTCCCCAGTGTGTGTAGTGCGATCTTCCAGGTCCTCCTGGTTGGCGTTGTCCAGAAACTGCTTCAGGTAAGTGGGGTGTGCCCAATCCCTACAAAGGTTGATTCTTTCACCACCTTAGGAATGCTCCGGAGGTACCCCAGCAACAGCTGGGATCTGACCGGAGGCTAATTGTCTACGGGTGGTGTTTCCTTTTTCTTTTCACACAACTCTACTGCTGACAACTCACTGACTATCCACTTGCTCTCTTGTGCCTTTCTGCTCTGGTTCAAGTTCCTTGATTGTTTTTGACTGCTTTTCACTGCTTTTCTTCTCACAATCCTTGCTCAGTTCAAAGTC
B4: Caprine Kobuvirus d10 (nucleic acid, listed as Kobuvirus sp.)
DNA: GGGGCCTCGGCCCCCTCACCCTCTTTTCCGGTGGCCACGCCCGGGCCACCGATACTTCCCTTCACTCCTTCGGGACTGTTGGGGAGGAACACAACAGGGCTCCCCTGTTTTCCCATTCCTTCCCCCTTTTCCCAACCCCAACCGCCGTATCTGGTGGCGGCAAGACACACGGGTCTTTCCCTCTAAAGCACAATTGTGTGTGTGTCCCAGGTCCTCCTGCGTACGGTGCGGGAGTGCTCCCACCCAACTGTTGTAAGCCTGTCCAACGCGTCGTCCTGGCAAGACTATGACGTCGCATGTTCCGCTGCGGATGCCGACCGGGTAACCGGTTCCCCAGTGTGTGTAGTGCGATCTTCCAGGTCCTCCTGGTTGGCGTTGTCCAGAAACTGCTTCAGGTAAGTGGGGTGTGCCCAATCCCTACAAAGGTTGATTCTTTCACCACCTTAGGAATGCTCCGGAGGTACCCCAGCAACAGCTGGGATCTGACCGGAGGCTAATTGTCTACGGGTGGTGTTTCCTTTTTCTTTTCACACAACTCTACTGCTGACAACTCACTGACTATCCACTTGCTCTCTTGTGCCTTTCTGCTCTGGTTCAAGTTCCTTGATTGTTTTTGACTGCTTTTCACTGCTTTTCTTCTCACAATCCTTGCTCAGTTCAAAGTC
B5: Wobbly possum disease virus (nucleic acid)
DNA: CGGCTGTGAGTGCTTAGCATATGCTAGAGTACTACAGCCGGGTGTTGGAGTCATATGCACTGGTTGCCTGTATAATAGTCGGGATCTGTCTGACCTACATTATCTTTGGGAGTTGCTTATCACGACAATTCTCGAAGTGTCTGTCGACAGCTTACCCCCGATTCGACAAGGCCCCTTGTCCACCGCAGACCTATCGATTTTCAACGAGAACACTATCAGAGGTTTAAATTTAAAACTCACCAACA
B6: Yak enterovirus (nucleic acid, listed as Enterovirus sp.)
DNA: CTCCGGCACAGCCGCACCAGTGCACTGGTACGCTAGTACCTTTTCACGGGGTAGTCGGTATCCCCCCCCGTAACTTAGAAGCATGTAACAAACCGACCAATAGGTGCGCGGCAGCCAGCTGCGTTGCGGTCAAGCACTTCTGTCTCCCCGGTCCGCAAGGATCGTTACCCGCCCACTCCACTACGAGGAGCCTAGTAACTGGCCAAGTGATTGCGGAGTTGCGTTCAGCCACAACCCCAGTGGTAGCTCTGGAAGATGGGGCTCGCACATCCCCCGTGGTAACACGGTTGCTTGCCCGCGTGTGCTTCCGGGTTCAGTCTCCGACTGTTCACTTCAACATCACGCAACCAGCCAAGAGCCGATTGTGCTGGAGTGGTCTTCCTCCGGGGCCGTGAATGCTGCTAATCCTAACCTCCGAGCGTGTGCGCACAATCCAGTGTTGCTACGTCGTAACGCGTAAGTTGGAGGCGGAACAGACTACTTTCGGCACCCCGTGTTTCCTTTATTTTATTCTTATTTTATGGTGACAATTGCAGAGATTTGTGATATTGCGACTTTACCGTTAAACATAGCACTGCATTACCTGGTTGCATTCCACAAAACTTCAGAGATTCCTAGTTCCTACATTGACCTACTTGTTTATTTGAATCTTAAATACAAACTTGAGCAAGTGAA
B7: Caprine Kobuvirus d30 (nucleic acid, listed as Kobuvirus sp.)
DNA: CTCTTTTCCGGTGGCCACGCCCGGGCCACCGATACTTCCCTTCACTCCTTCGGGACTGTTGGGGAGGAACACAACAGGGCTCCCCTGTTTTCCCATTCCTTCCCCCTTTTCCCAACCCCAACCGCCGTATCTGGTGGCGGCAAGACACACGGGTCTTTCCCTCTAAAGCACAATTGTGTGTGTGTCCCAGGTCCTCCTGCGTACGGTGCGGGAGTGCTCCCACCCAACTGTTGTAAGCCTGTCCAACGCGTCGTCCTGGCAAGACTATGACGTCGCATGTTCCGCTGCGGATGCCGACCGGGTAACCGGTTCCCCAGTGTGTGTAGTGCGATCTTCCAGGTCCTCCTGGTTGGCGTTGTCCAGAAACTGCTTCAGGTAAGTGGGGTGTGCCCAATCCCTACAAAGGTTGATTCTTTCACCACCTTAGGAATGCTCCGGAGGTACCCCAGCAACAGCTGGGATCTGACCGGAGGCTAATTGTCTACGGGTGGTGTTTCCTTTTTCTTTTCACACAACTCTACTGCTGACAACTCACTGACTATCCACTTGCTCTCTTGTGCCTTTCTGCTCTGGTTCAAGTTCCTTGATTGTTTTTGACTGCTTTTCACTGCTTTTCTTCTCACAATCCTTGCTCAGTTCAAAGTC
B8: Avian orthoreovirus segment S1 (nucleic acid, listed as Avian orthoreovirus)
DNA: GCTTTTTCAATCCCTTGTGTCGATGTTCCCGTATGTCATCTGGTTCATGTAACGGTGCAACTTCTATTTTTGGTAACGTTCACTGTCAGGCAGCGCAAAACTCGGCGGGTGGTGATCTTCAAGCGACTTCCTCTCTTGTTGCTTATTGGCCCTACTTGGCTGCGGGCGGTGGTCTGCTCGTTGTTATTATTATAATTGTTGGCGCTGTTTGTTGTTGCAAGGCTAAGGTTAAAGCGGACGCAGCCCGAAACGTTTTCTACCGAGAGCTGTTCGCACTTAATTCGGGTAAAAGTGATGCAGGACCTCCGATTTACCAGGTTTAGTGTACGACGATTTGAGTTTTCACCTTTCGTCTTAGAGGAGTGCACTACTCCATCTTTCACGACTATAACTAATACCGATCCGGCTCTCTACTTTAACATTGAGTTTCCGTCAAGTCATCGTCTCTCCCCCTTCATTCCAGAACTGTTGTCTCAGCCTTGTACCGTTCACGTTTCATTGATTCGGAGATTCGCTCTCTGTGCAACCTTATCTAGTATTTGTGAATACGACTGTGCGCTACTGCCATCCATCAACGCTATTACGACGATCCCTACACCAGGTGCGTCATCATCTCTGATTGTTCATTGGG
B9: Aichivirus A FSS693 (nucleic acid)
DNA: CACCCATACACCCCCACCCCCTTTTCTGTAACTCAAGTATGTGTGCTCGTAATCTTGACTCCCACGGAATGGATCGATCCGCTGGAGAACAAACTGCTAGATCCACATCCTCCCTCCCCTTGGGAGGACCTCGGTCCTCCCACATCCTCCCTCCAGCCTGACGTATCACAGGCTGTGTGAAGCCCCCGCGAAAGCTGCTCACGTGGCAATTGTGGGTCCCCCCTTCATCAAGACACCAGGTCTTTCCTCCTTAAGGCTAGCCCCGATGTGTGAATTCACATTGGGCAACTAGTGGTGTCACTGTGCGCTCCCAATCTCGGCCGCGGAGTGCTGTTCCCCAAGCCAAACCCCTGGCCCTTCACTATGTGCCTGGCAAGCATATCTGAGAAGGTGTTCCGCTGTGGCTGCCAGCCTGGTAACAGGTGCCCCAGTGTGCGTAACCTTCTTCCGTCTCCGGACGGTAGTGATTGGTTAAGATTTGGTGTAAGGTTCATGTGCCAACGCCCTGTGCGGGATGAAACCTCTACTGCCCTAGGAATGCCAGGCAGGTACCCCACCTTCGGGTGGGATCTGAGCCTGGGCTAATTGTCTACGGGTAGTTTCATTTCCAATTCTTTTATGCTGGAGTC
modifications: Aichivirus A

In this data set the test system is HEK293 cells. It is filed as cell-based, human. As to conditions: luminescence from secreted Gluc in supernatant 24 hours after transfection of HEK293 cells; circular RNA encoding Gluc with the named IRES (UTR truncated to 675 nt).
For the molecule B1, the Expression was found to be 2.15E+08. Next, B2: 1.69E+05; B3: 2.00E+08.

Molecule B4 came in with an Expression of 2.20E+08. B5 returned an Expression of 2.60E+05. Next, B6: 6.19E+06; B7: 1.87E+08. Next, B8: 4.37E+05; B9: 6.25E+07.

Source of the values: patent publication US20230226096A1 (Orna Therapeutics, Inc., priority 2020, published 2023).
